± gives the standard deviation.

This series in a line: protein stability index of a GFP-peptide fusion (GPS, HEK-293T) (PSI 1-6); higher = more stable.
Where [1] appears, read: treatment: DMSO, c terminus: a fixed tail appended.
Where [2] appears, read: treatment: MLN4924 1 uM, 8 h, c terminus: a fixed tail appended.
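Also: 24-mer peptide tiles fused after GFP, lentivirally expressed, FACS-sorted into six equal bins by GFP/DsRed ratio, decoded by Illumina sequencing, PSI is the read-weighted mean bin number.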

With AADGPTVCCNPYHFSRLCGPESPP [SMAD6], the protein stability index under setting [1] worked out at 3.65 ± 0.11 and the protein stability index under setting [2] is 3.76 ± 0.24.
The like results for AAIAFTLALFSHLVNHVNIRLQAE [SMG5] were, in that order, 3.22 ± 0.4 and 3.46 ± 0.37.
As to AANPRPDALMKEQLVEMTGLSPRV [ISL2], the protein stability index is, setting by setting: under setting [1], 4.17 ± 0.27; under setting [2], 4.19 ± 0.33.
For AAPEGKRSLANGPNAGEQPGQVAG [EID1], in that order: 5.44 ± 0.38 and 5.22 ± 0.16.
For AAPWPMAFPYQYPPPPHPYNPHPG [DVL3], the protein stability index runs as follows: under setting [1], 2.62 ± 0.26; under setting [2], 2.85 ± 0.21.
AAQNGDESSTRLLLEKNASVNEVD [RIPK4] had a protein stability index under setting [1] of 5.37 ± 0.24 and a protein stability index under setting [2] of 5.48 ± 0.27.
As for ACPVCSKMVPRYDLNRHLDEMCAN [FAN1], the protein stability index worked out at 2.6 ± 0.49 under setting [1] and 2.27 ± 0.17 under setting [2].
In the case of ADEDDDRDVALQIHFTLIQAFCCE [GADD45A], the protein stability index is, setting by setting: under setting [1], 2.28 ± 0.35; under setting [2], 2.36 ± 0.085.
Consider ADILAGREDNSGSDVLIGDILVLL [SLC35F2], for which the protein stability index runs as follows: under setting [1], 2.48 ± 0.26; under setting [2], 2.43 ± 0.18.
In the case of AEALGKLLQQNKSIQSLTLEWNSL [LRRC45], the protein stability index under setting [1] was 2.13 ± 0.16 and the protein stability index under setting [2] came out at 2.25 ± 0.32.
For AECFRIFDRNADGYIDPEELAEIF [TNNC2], the protein stability index by setting is: under setting [1], 5.32 ± 0.21; under setting [2], 5.09 ± 0.15.
As for AEDGGAYLATAKVLITVEDVNDNS [PCDHGA10], the protein stability index is, setting by setting: under setting [1], 4.4 ± 0.21; under setting [2], 4.36 ± 0.29.
As to AEDWFFSKTEELNREVATNSELVQ [KRT17], the protein stability index runs as follows: under setting [1], 4.87 ± 0.2; under setting [2], 4.84 ± 0.07.
For AELHAHGPAAFVDYFERNWEPRRD [ZSWIM9], in that order: 3.89 ± 0.3 and 4.07 ± 0.23.
As for AEQEALTGECKELEKKNEALKERA [ATF4], the protein stability index by setting is: under setting [1], 5.3 ± 0.28; under setting [2], 5.28 ± 0.27.
The like results for AERLEVSVDGLTLSPDPEERPGAE [ACBD3] were, in that order, 5.29 ± 0.45 and 5.56 ± 0.3.
Consider AEVSWEPGRREGCDICAGKAGCPI [RPS21], for which the protein stability index under setting [1] turned out to be 3.29 ± 0.31 and the protein stability index under setting [2] was 3.89 ± 0.26.
Take AEVVKIRDSFSNQNTETKDTKSR [DLC1]: the protein stability index is, setting by setting: (treatment: DMSO, c terminus: native) 2.89 ± 0.56; (treatment: MLN4924 1 uM, 8 h, c terminus: native) 3.47 ± 0.74.
For AFASTCLLSRFSVGIFHLMQIAVP [TMEM175], the protein stability index turned out to be 3.02 ± 0.29 under setting [1] and 3 ± 0.22 under setting [2].
AFFKRTIQGNIEYSCPATNECEIT [ESRRG] returned a protein stability index under setting [1] of 3.11 ± 0.25 and a protein stability index under setting [2] of 3.23 ± 0.27.
As for AFSQAISAIQALRSSVSRVFDCLK [MED27], the protein stability index is, setting by setting: under setting [1], 3.69 ± 0.36; under setting [2], 3.41 ± 0.15.
For the sequence AGFAQLTHLLMGLAGGKLILSLEG [HDAC6], the protein stability index reads like this: under setting [1], 3.56 ± 0.82; under setting [2], 3.05 ± 0.82.
As to AGGDVPHKTHQAPASASSLPGTGA [DYRK1B], the protein stability index reads like this: under setting [1], 4.89 ± 0.099; under setting [2], 4.87 ± 0.28.
In the case of AGGTSDDPEPSGPHLPRVMLPGVL [SCNN1D], the protein stability index amounted to 4.14 ± 0.21 under setting [1] and 4.16 ± 0.13 under setting [2].
The like results for AGILSNLTCNNYKNKMMVCQVGGI [CTNNB1] were, in that order, 2.17 ± 0.3 and 2.11 ± 0.37.
The like results for AGLEDEDVIIEVNGVNVLDEPYEK [PDZK1] were, in that order, 5.05 ± 0.35 and 5 ± 0.27.
Regarding AHELGHSLGLSHSTDIGALMYPSY [MMP1], the protein stability index by setting is: under setting [1], 3.14 ± 0.18; under setting [2], 2.9 ± 0.14.
On to AHRIAAQTLLGTAKMLLHEGQHPA [PYCR3], for which the protein stability index was 2.97 ± 0.31 under setting [1] and 2.95 ± 0.42 under setting [2].
For AILFTRQDLCGVSTCDTLGMADVG [ADAMTS4], the protein stability index turned out to be 1.8 ± 0.28 under setting [1] and 2.66 ± 0.22 under setting [2].
Regarding AIMNALIEAGAHMDATNAFKKTAY [FEM1A], the protein stability index by setting is: under setting [1], 2.51 ± 0.39; under setting [2], 2.11 ± 0.35.
For AIPYLEHIIHVWEETGSRFHNCLI [VPS39], in that order: 2.31 ± 0.4 and 2.36 ± 0.54.
With AKLGTQAEKDRRLKKKHQLLEDAR [PPFIA4], the protein stability index was 4.26 ± 0.37 under setting [1] and 4.44 ± 0.1 under setting [2].
The like results for AKVDGETASDSESRAESAPLPVSA [CDS2] were, in that order, 5.57 ± 0.15 and 5.5 ± 0.27.
The like results for ALAVKAGHGYDSKKQQELTAAVLG [ZBED1] were, in that order, 3.82 ± 0.24 and 3.87 ± 0.25.
As for ALDKQHSRDSAAITHSTYSLPASS [NOL4L], the protein stability index stood at 4.57 ± 0.065 under setting [1] and 4.5 ± 0.065 under setting [2].
With ALIICYNWLHRRLAGQFLEELRKF [MOG], the protein stability index was 2.64 ± 0.65 under setting [1] and 2.47 ± 0.57 under setting [2].
ALKYWKKAMNMRYSDRTNIISKPV [FEM1C] displayed a protein stability index under setting [1] of 2.5 ± 0.52 and a protein stability index under setting [2] of 2.28 ± 0.31.
The like results for ALPIATAFTEYVHAYFRGHSPSCL [FCHO1] were, in that order, 2.73 ± 0.55 and 2.78 ± 0.57.
For ALTRLERHLERKAWVANFERPRMN [CRY1], in that order: 2.42 ± 0.048 and 2.66 ± 0.6.
The like results for ANETYENNFDNLDFDLDLVPWESD [ATF6] were, in that order, 5.07 ± 0.24 and 4.82 ± 0.23.
For the sequence ANPYWTSRGSSVSMSGGRFRCPTC [TRIM63], the protein stability index runs as follows: under setting [1], 2.65 ± 0.47; under setting [2], 3.1 ± 0.4.
APELLGGAEPGTYLTGTINGDPES [ADAMTS4] returned a protein stability index under setting [1] of 5.73 ± 0.28 and a protein stability index under setting [2] of 5.51 ± 0.36.
Consider APNSLSAPTMLHNSSGDFSQAHST [TRAF3IP2], for which the protein stability index is 4.84 ± 0.14 under setting [1] and 4.78 ± 0.28 under setting [2].
Consider APRTSSCAERLQSEEQVSKNLFGP [FCHO1], for which the protein stability index reads like this: under setting [1], 4.21 ± 0.17; under setting [2], 4.17 ± 0.31.
In the case of AQKTALLQDGRRKVHYLFPDGKEM [DPCD], the protein stability index is, setting by setting: under setting [1], 3.29 ± 0.22; under setting [2], 3.62 ± 0.23.
ARKAMRNGISPIIIDNTNLHAWEM [N4BP2L1]: the protein stability index runs as follows: under setting [1], 2.33 ± 0.25; under setting [2], 2.25 ± 0.42.
On to ARYGHLDMVEFLLEQCSASIEVGG [FEM1C], for which the protein stability index by setting is: under setting [1], 2.48 ± 0.5; under setting [2], 2.14 ± 0.36.
As for ASAAARLGCNRQSWCLKRYDLEYW [TRIM14], the protein stability index runs as follows: under setting [1], 2.29 ± 0.7; under setting [2], 1.86 ± 0.27.
For the sequence ASALTLVLGGRRLRRAWFSWPRAS [SCNN1D], the protein stability index by setting is: under setting [1], 2.13 ± 0.39; under setting [2], 2.05 ± 0.28.
In turn, ASCSKNCTNSPAIVRFSGQSRGVP [FBXO34] gave a protein stability index under setting [1] of 3.68 ± 0.27 and a protein stability index under setting [2] of 3.63 ± 0.25.
In the case of ASDYFKAMFTGGMKEQDLMCIKLH [KLHL13], the protein stability index under setting [1] was 2.13 ± 0.17 and the protein stability index under setting [2] amounted to 2.13 ± 0.25.
For ASIQNHVRKREAPAPEAESKQTEK [EFHC1], the protein stability index reads like this: under setting [1], 5.36 ± 0.28; under setting [2], 5.32 ± 0.37.
Take ASQSLGSPMYFFLASLSFIDTVYS [OR4A15]: the protein stability index is, setting by setting: under setting [1], 2.89 ± 0.57; under setting [2], 2.67 ± 0.96.
The like results for ATDYLRYKPVVLLQGLSLIVTWFM [SLC19A2] were, in that order, 2.35 ± 0.12 and 2.42 ± 0.19.
The like results for ATFSGFKKEQRRLGIPKNPWLWSE [ETS2] were, in that order, 2.28 ± 0.18 and 2.57 ± 0.52.
With ATRSTTQSNRTSRLIGKKMNRSVS [WEE1], the protein stability index reads like this: under setting [1], 4.27 ± 0.28; under setting [2], 4.21 ± 0.3.
AVFMWPGKDSRWLPSLVLARLVFV [SLC29A1]: the protein stability index is, setting by setting: under setting [1], 3.25 ± 0.68; under setting [2], 2.67 ± 0.34.
Take AVPKFMKRIKVPDYKDRSVFGVPL [DLC1]: the protein stability index by setting is: under setting [1], 2.33 ± 0.15; under setting [2], 2.4 ± 0.25.
For the sequence CAFLLLRLLVGLALATLRVLRGLA [TMEM175], the protein stability index is, setting by setting: under setting [1], 3.56 ± 0.37; under setting [2], 3.35 ± 0.086.
As for CAIQMFSFLFLGCSHSFLLAVMGY [OR10K2], the protein stability index by setting is: under setting [1], 3.41 ± 0.14; under setting [2], 3.46 ± 0.37.
For the sequence CEKTFNRKDHLKNHLQTHDPNKMA [PLAGL1], the protein stability index is, setting by setting: under setting [1], 4.31 ± 0.26; under setting [2], 4.42 ± 0.16.
CGCGSFCRLGYGCGYEGCRYGCGH [KRTAP19-2]: the protein stability index reads like this: under setting [1], 2.55 ± 0.44; under setting [2], 2.62 ± 0.46.
The like results for CGRAFSRKSLLVVHQRTHTGEKPH [ZNF649] were, in that order, 2.69 ± 0.26 and 2.64 ± 0.093.
On to CGRRGIKVWSLTGQVAEDRFPESH [TLE6], for which the protein stability index reads like this: under setting [1], 2.79 ± 0.27; under setting [2], 3.11 ± 0.16.
In the case of CHLFSTYVASHKIEKEEQEKKRKE [ACBD3], the protein stability index was 4.41 ± 0.41 under setting [1] and 4.43 ± 0.21 under setting [2].
CHSESGKSRLVQLPPVAVRSLQDL [PCMTD2]: the protein stability index came out at 3.44 ± 0.33 under setting [1] and 3.28 ± 0.28 under setting [2].
As for CKKLHIPLKAQNDLDISRIKRGNT [P2RY14], the protein stability index runs as follows: under setting [1], 3.44 ± 0.33; under setting [2], 3.65 ± 0.14.
For CLDTIDKSTMDAISAEGFTDIDID [BTBD1], in that order: 4.88 ± 0.19 and 4.82 ± 0.22.
As for CMWSKKCSGVACLVKDNPQRSYFL [WASL], the protein stability index by setting is: under setting [1], 2.26 ± 0.29; under setting [2], 2.04 ± 0.27.
The like results for CPEVKLKTTGLEEAAEAETAKDNG [SRPK2] were, in that order, 5.5 ± 0.27 and 5.49 ± 0.26.
Turning to CQRERAFSVKFEVQAPRWGNPRAL [OAS1], the protein stability index came to 2.46 ± 0.12 under setting [1] and 2.8 ± 0.27 under setting [2].
As to CRALRDPALDSLAYEYEREGLYEQ [TRADD], the protein stability index was found to be 3.73 ± 0.34 under setting [1] and 3.63 ± 0.18 under setting [2].

These data come from the supplement of paper PMC10567573.
